Legend:
[1] = molecular target: sp1_human SP1 (UniProt P08047)
[2] = molecular target: pdk1_human PDK1 (UniProt Q15118)
Chain of pdk1_human PDK1 (Q15118 whole entry, looked up): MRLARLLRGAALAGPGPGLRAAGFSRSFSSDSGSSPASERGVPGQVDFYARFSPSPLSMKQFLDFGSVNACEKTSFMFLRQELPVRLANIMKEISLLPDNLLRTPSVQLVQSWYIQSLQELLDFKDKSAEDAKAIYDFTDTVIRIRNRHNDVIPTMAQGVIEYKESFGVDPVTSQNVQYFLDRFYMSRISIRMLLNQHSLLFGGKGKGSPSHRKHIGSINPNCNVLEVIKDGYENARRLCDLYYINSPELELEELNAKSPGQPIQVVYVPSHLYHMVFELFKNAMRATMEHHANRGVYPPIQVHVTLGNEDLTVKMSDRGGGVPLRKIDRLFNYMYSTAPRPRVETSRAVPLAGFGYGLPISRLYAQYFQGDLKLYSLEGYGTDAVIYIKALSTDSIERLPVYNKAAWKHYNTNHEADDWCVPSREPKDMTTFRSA

Chain of Endothelial PAS domain-containing protein 1 (Homo sapiens), Q99814 P329T (Q99814 whole entry P329T, the tested form may be a part): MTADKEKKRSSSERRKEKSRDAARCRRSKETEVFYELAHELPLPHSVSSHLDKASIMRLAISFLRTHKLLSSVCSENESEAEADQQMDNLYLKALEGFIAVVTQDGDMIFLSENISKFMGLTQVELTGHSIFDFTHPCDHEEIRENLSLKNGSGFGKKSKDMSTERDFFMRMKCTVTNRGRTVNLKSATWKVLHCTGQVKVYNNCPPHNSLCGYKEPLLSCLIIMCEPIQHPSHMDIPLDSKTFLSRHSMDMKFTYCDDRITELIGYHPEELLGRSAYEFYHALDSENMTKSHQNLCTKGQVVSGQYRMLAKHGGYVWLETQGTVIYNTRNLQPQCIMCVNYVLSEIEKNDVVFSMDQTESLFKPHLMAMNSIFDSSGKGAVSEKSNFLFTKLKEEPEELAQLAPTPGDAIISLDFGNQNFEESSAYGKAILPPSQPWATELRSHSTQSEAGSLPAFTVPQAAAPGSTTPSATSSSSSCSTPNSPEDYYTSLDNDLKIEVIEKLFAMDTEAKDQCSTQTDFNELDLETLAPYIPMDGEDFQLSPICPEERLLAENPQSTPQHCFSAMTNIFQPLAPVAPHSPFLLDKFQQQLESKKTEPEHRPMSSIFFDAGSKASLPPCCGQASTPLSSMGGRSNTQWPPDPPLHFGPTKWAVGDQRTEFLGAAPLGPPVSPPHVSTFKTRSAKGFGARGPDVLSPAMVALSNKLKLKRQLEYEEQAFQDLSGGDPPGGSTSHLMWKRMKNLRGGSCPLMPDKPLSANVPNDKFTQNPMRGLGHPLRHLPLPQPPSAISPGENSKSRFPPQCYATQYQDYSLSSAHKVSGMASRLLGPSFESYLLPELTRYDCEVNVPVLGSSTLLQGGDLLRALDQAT
Chain of sp1_human SP1 (P08047 whole entry): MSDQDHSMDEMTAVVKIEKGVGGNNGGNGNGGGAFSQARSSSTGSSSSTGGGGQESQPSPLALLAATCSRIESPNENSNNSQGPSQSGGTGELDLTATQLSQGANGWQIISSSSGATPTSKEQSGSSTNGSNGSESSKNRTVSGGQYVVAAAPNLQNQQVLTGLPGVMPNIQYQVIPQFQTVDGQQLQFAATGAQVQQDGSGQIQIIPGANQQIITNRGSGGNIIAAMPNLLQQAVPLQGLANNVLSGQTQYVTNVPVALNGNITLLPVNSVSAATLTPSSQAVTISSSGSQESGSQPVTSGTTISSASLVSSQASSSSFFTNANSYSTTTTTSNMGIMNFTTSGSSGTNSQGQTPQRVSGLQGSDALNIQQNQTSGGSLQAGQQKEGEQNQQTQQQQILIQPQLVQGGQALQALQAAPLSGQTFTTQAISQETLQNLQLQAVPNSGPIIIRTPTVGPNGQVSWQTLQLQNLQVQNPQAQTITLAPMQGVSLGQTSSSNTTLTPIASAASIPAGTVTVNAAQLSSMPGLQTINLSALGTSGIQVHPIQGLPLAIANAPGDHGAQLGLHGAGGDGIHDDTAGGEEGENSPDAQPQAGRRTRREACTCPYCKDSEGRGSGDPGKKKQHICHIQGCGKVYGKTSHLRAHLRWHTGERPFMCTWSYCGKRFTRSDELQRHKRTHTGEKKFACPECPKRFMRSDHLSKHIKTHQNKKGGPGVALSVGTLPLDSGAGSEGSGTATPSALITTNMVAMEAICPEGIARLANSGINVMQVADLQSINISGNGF
Chain of Endothelial PAS domain-containing protein 1 (Homo sapiens), Q99814 T324V (Q99814 whole entry T324V, the tested form may be a part): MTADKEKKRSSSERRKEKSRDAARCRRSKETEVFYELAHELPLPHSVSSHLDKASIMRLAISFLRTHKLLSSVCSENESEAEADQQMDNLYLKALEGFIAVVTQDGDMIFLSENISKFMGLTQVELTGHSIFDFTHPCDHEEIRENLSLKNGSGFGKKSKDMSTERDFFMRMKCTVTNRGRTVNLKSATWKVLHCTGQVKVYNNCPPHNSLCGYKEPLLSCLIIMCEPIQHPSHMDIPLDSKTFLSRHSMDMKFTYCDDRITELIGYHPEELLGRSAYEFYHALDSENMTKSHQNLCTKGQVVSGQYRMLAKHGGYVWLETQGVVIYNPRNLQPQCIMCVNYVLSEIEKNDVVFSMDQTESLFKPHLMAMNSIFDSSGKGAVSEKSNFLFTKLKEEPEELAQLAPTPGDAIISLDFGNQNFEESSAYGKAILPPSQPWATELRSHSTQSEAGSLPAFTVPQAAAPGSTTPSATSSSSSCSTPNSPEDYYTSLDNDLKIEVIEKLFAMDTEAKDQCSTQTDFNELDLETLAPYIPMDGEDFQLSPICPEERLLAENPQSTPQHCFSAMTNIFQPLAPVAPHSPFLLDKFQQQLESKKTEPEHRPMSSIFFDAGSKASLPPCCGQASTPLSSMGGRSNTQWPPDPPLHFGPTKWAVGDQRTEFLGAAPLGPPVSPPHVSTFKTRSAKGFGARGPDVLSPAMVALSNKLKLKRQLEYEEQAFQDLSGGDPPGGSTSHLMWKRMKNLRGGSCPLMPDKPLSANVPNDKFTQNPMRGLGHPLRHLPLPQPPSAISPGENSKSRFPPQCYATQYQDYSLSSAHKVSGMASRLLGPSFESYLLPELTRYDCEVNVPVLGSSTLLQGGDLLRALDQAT

effect of a mutation on the interaction [1] | effect of a mutation on the interaction [2] | Substance
increasing interaction |  | Endothelial PAS domain-containing protein 1 (Homo sapiens), Q99814 P329T
 | disrupting interaction | Endothelial PAS domain-containing protein 1 (Homo sapiens), Q99814 T324V

Reference: IntAct's records for PubMed 17024177
